Numbering of substitutions follows the chain as printed. Read-outs that look alike come from different tables or passages of the source. Ends that are not written are not given here.
B1: Val^8-Tyr^12-GLP-1(7-36)NH2 (peptide)
peptide: HVEGTYTSDVSSYLEGQAAKEFIAWLVKGR-NH2
B2: Val^8-Tyr^12-Tyr^16-GLP-1(7-37)OH (peptide)
peptide: HVEGTYTSDYSSYLEGQAAKEFIAWLVKGRG
B3: Val^8-Tyr^16-Phe^19-GLP-1(7-37)OH (peptide)
peptide: B2 peptide with Y6F, Y13F
B4: HGEGTFTSDLSKQMEEEAAKEFIEWLKNGGP-NH2 (peptide)
peptide: HGEGTFTSDLSKQMEEEAAKEFIEWLKNGGP-NH2
B5: HGEGTFTSDLSKQMEGQAAKEFIEWLKNGGP-NH2 (peptide)
peptide: HGEGTFTSDLSKQMEGQAAKEFIEWLKNGGP-NH2
B6: Val^8-Asp^9-Ile^11-Tyr^16-Glu^22-GLP-1(7-37)OH (peptide)
peptide: HVDGIFTSDYSSYLEEQAAKEFIAWLVKGRG
B7: HVEGTFTSDLSKQMEEEAVRLFIAWLVKGRG (peptide)
peptide: HVEGTFTSDLSKQMEEEAVRLFIAWLVKGRG
B8: HGEGTFTSDLSKQMEEEAVRLFIAWLVKGRG (peptide)
peptide: B7 peptide with V2G
B9: HAEGTFTSDVSKQLEEEAAKEFIAWLVKGRG (peptide)
peptide: HAEGTFTSDVSKQLEEEAAKEFIAWLVKGRG
B10: HGEGTFTSDVSSYLEEEAVRLFIEWLKNGGP-NH2 (peptide)
peptide: HGEGTFTSDVSSYLEEEAVRLFIEWLKNGGP-NH2
B11: Val^8-Gly^36-Pro^37-GLP-1(7-37)NH2 (peptide)
peptide: HVEGTFTSDVSSYLEGQAAKEFIAWLVKGGP-NH2
B12: HVEGTFTSDVSSYLEGQAAKEFIEWLKNGGP-NH2 (peptide)
peptide: HVEGTFTSDVSSYLEGQAAKEFIEWLKNGGP-NH2
B13: Val^8-Phe^20-Glu^22-GLP-1(7-37)OH (peptide)
peptide: HVEGTFTSDVSSYFEEQAAKEFIAWLVKGRG
B14: Val^8-Lys^18-Glu^22-GLP-1(7-37)OH (peptide)
peptide: B13 peptide with S12K, F14L
B15: Val^8-Leu^25-GLP-1(7-37)OH (peptide)
peptide: B13 peptide with F14L, E16G, A19L
B16: Val^8-Glu^22-Ile^27-GLP-1(7-37)OH (peptide)
peptide: B13 peptide with F14L, E21I
B17: Val^8-Cys^16-Lys^26-GLP-1(7-37)OH (peptide)
peptide: B2 peptide with Y6F, Y10C
B18: Val^8-Ile^16-Glu^22-GLP-1(7-37)OH (peptide)
peptide: B13 peptide with V10I, F14L
B19: Val^8-Tyr^12-GLP-1(7-37)OH (peptide)
peptide: B2 peptide with Y10V
B20: Val^8-Ile^18-Glu^22-GLP-1(7-37)OH (peptide)
peptide: B13 peptide with S12I, F14L
B21: Val^8-Glu^22-Ile^25-GLP-1(7-37)OH (peptide)
peptide: B13 peptide with F14L, A19I
B22: Val^8-GLP-1(7-37)OH (peptide)
peptide: B13 peptide with F14L, E16G
B23: Val^8-Tyr^16-Trp^19-Glu^22-GLP-1(7-37)OH (peptide)
peptide: B6 peptide with D3E, I5T, Y13W
B24: Val^8-Phe^18-Glu^22-GLP-1(7-37)OH (peptide)
peptide: B13 peptide with S12F, F14L
B25: Val^8-Tyr^16-GLP-1(7-37)OH (peptide)
peptide: B2 peptide with Y6F
B26: Val^8-Glu^22-Leu^25-GLP-1(7-37)OH (peptide)
peptide: B13 peptide with F14L, A19L
B27: Val^8-Trp^12-GLP-1(7-37)OH (peptide)
peptide: B2 peptide with Y6W, Y10V
B28: Val^8-Trp^19-Glu^22-GLP-1(7-37)OH (peptide)
peptide: B13 peptide with Y13W, F14L
B29: Val^8-Trp^12-Glu^22-GLP-1(7-37)OH (peptide)
peptide: B13 peptide with F6W, F14L
B30: Val^8-Tyr^12-Glu^22-GLP-1(7-37)OH (peptide)
peptide: B13 peptide with F6Y, F14L
B31: Val^8-Phe^19-Glu^22-GLP-1(7-37)OH (peptide)
peptide: B13 peptide with Y13F, F14L
B32: Val^8-Phe^16-Glu^22-GLP-1(7-37)OH (peptide)
peptide: B13 peptide with V10F, F14L
B33: Val^8-Leu^16-GLP-1(7-37)OH (peptide)
peptide: B2 peptide with Y6F, Y10L
B34: Gly^8-GLP-1(7-37)OH (peptide)
peptide: B13 peptide with V2G, F14L, E16G
B35: Val^8-Leu^16-Glu^22-GLP-1(7-37)OH (peptide)
peptide: B13 peptide with V10L, F14L
B36: HAEGTFTSDVSSYLEGQAAKEFIAWLVKGRPSSGAPPPS-NH2 (peptide)
peptide: HAEGTFTSDVSSYLEGQAAKEFIAWLVKGRPSSGAPPPS-NH2
B37: HGEGTFTSDLSSYLEEEAVRLFIEWLKNGGP-NH2 (peptide)
peptide: HGEGTFTSDLSSYLEEEAVRLFIEWLKNGGP-NH2
B38: Val^8-Trp^16-Glu^22-Val^25-Ile^33-GLP-1(7-37)OH (peptide)
peptide: HVEGTFTSDWSSYLEEQAVKEFIAWLIKGRG
B39: HVEGTFTSDVSSYLEEEAVRLFIAWLVKGRG (peptide)
peptide: HVEGTFTSDVSSYLEEEAVRLFIAWLVKGRG
B40: HVEGTFTSDLSKQMEGQAAKEFIAWLVKGRG (peptide)
peptide: HVEGTFTSDLSKQMEGQAAKEFIAWLVKGRG

Key:
Experiment in all cases: cell-based or functional assay
GLP-1 receptor [1] = target: GLP-1 receptor
GLP-1 receptor [2] = target: GLP-1 receptor; remark: listed apart in the source
GLP-1 receptor [3] = target: GLP-1 receptor; remark: listed apart in the source

Binder	GLP-1 Receptor Activation (GLP-1 receptor [1])	In Vitro Activity (% of Val^8-GLP-1(7-37)OH) (GLP-1 receptor [2])	GLP-1 Receptor Activation (GLP-1 receptor [3])
B1	0.52 fold of GLP-1(7-37)OH	–	–
B2	0.7 fold of GLP-1(7-37)OH	–	–
B3	1.32 fold of GLP-1(7-37)OH	–	–
B4	–	2.8 % of Val^8-GLP-1(7-37)OH	–
B5	–	1.44 % of Val^8-GLP-1(7-37)OH	–
B6	2.02 fold of GLP-1(7-37)OH	–	–
B7	–	2.86 % of Val^8-GLP-1(7-37)OH	–
B8	–	3.25 % of Val^8-GLP-1(7-37)OH	–
B9	–	2.15 % of Val^8-GLP-1(7-37)OH	–
B10	–	5.4 % of Val^8-GLP-1(7-37)OH	–
B11	–	–	0.53 fold of GLP-1(7-37)OH
B12	–	2.36 % of Val^8-GLP-1(7-37)OH	–
B13	1.27 fold of GLP-1(7-37)OH	–	–
B14	1.18 fold of GLP-1(7-37)OH	–	–
B15	0.24 fold of GLP-1(7-37)OH	–	–
B16	0.94 fold of GLP-1(7-37)OH	–	–
B17	1.97 fold of GLP-1(7-37)OH	–	–
B18	1.55 fold of GLP-1(7-37)OH	–	–
B19	0.8 fold of GLP-1(7-37)OH	–	0.81 fold of GLP-1(7-37)OH
B20	1.88 fold of GLP-1(7-37)OH	–	–

Binder	GLP-1 Receptor Activation (GLP-1 receptor [1])	In Vitro Activity (% of Val^8-GLP-1(7-37)OH) (GLP-1 receptor [2])	GLP-1 Receptor Activation (GLP-1 receptor [3])
B21	1.46 fold of GLP-1(7-37)OH	–	–
B22	–	1 % of Val^8-GLP-1(7-37)OH	–
B23	1.64 fold of GLP-1(7-37)OH	–	–
B24	0.94 fold of GLP-1(7-37)OH	–	–
B25	1.18 fold of GLP-1(7-37)OH	–	1.18 fold of GLP-1(7-37)OH
B26	1.32 fold of GLP-1(7-37)OH	–	–
B27	0.52 fold of GLP-1(7-37)OH	–	–
B28	1.5 fold of GLP-1(7-37)OH	–	–
B29	0.8 fold of GLP-1(7-37)OH	–	–
B30	1.27 fold of GLP-1(7-37)OH	–	–
B31	0.7 fold of GLP-1(7-37)OH	–	–
B32	1.08 fold of GLP-1(7-37)OH	–	–
B33	0.52 fold of GLP-1(7-37)OH	–	–
B34	0.8 fold of GLP-1(7-37)OH	–	–
B35	2.02 fold of GLP-1(7-37)OH	–	–
B36	–	3.3 % of Val^8-GLP-1(7-37)OH	–
B37	–	5.07 % of Val^8-GLP-1(7-37)OH	–
B38	2.35 fold of GLP-1(7-37)OH	–	–
B39	–	1.47 % of Val^8-GLP-1(7-37)OH	–
B40	–	0.11 % of Val^8-GLP-1(7-37)OH	–
